The test system of this assay is Human lung squamous carcinoma cells NCI-H2170. Briefly: In vivo anti-tumor experiment (5), NCI-H2170 xenograft. The arrangement: species or system female nude mice. Conditions: 5 mg/kg i.v. single dose. The procedure:
Human lung squamous carcinoma cells NCI-H2170 (ATCC) were suspended in physiological saline. 4×10^7 cells were subcutaneously transplanted into the right flank of female nude mice, which were randomized into groups on day 6. Taking the grouping day as day 0, Antibody Conjugate 13, DS-1062a (the positive control drug) and the hIgG-A-11 conjugate as a negative control group were administered intravenously to the tail at a dose of 5 mg/kg respectively on day 0.

B1: DS-1062a (conjugate, chains of the INN, looked up)
VH: QVQLVQSGAEVKKPGASVKVSCKASGYTFTTAGMQWVRQAPGQGLEWMGWINTHSGVPKYAEDFKGRVTISADTSTSTAYLQLSSLKSEDTAVYYCARSGFGSSYWYFDVWGQGTLVTVSS
VL: DIQMTQSPSSLSASVGDRVTITCKASQDVSTAVAWYQQKPGKAPKLLIYSASYRYTGVPSRFSGSGSGTDFTLTISSLQPEDFAVYYCQQHYITPLTFGQGTKLEIK
modifications: deruxtecan payload
For B1, the anti-tumor activity entry was “showed anti-tumor activity”.

Values taken from patent US20240245795A1, “PREPARATION METHOD AND APPLICATION OF ANTIBODY DRUG CONJUGATE” (priority 2021, published 2024).
